The source of these data is patent US6344546 (RHONE POULENC RORER, dated 2002).

Test [1] deals with T1, human bek (bacterially expressed kinase) fibroblast growth factor receptor (human, UniProt P21802 22-821).
T1 construct: whole, on cells; Three-Ig-domain form, 135 kDa glycoprotein on transfected NIH 3T3 cells; Clone Nbek8 was used with aFGF and bFGF, clone NBek13 with kFGF; also called bek8; NBek8
The test can be described thus: Scatchard analysis of saturation binding, additional experiments. The protocol: (§1) Fibronectin-coated 24 well dishes containing 1×10^5 cells/well were placed on ice, and the wells were rinsed twice with cold binding buffer (DMEM, 1 mg/ml BSA, 5 U/ml heparin, 50 mM Hepes, pH 7.4). […] Nonspecific binding was obtained using the same serial dilutions but in the presence of 100 fold molar excess of non-radioactive aFGF. After incubation, the cells were placed on ice and rinsed twice with ice cold binding buffer minus heparin and then solubilized in 0.3N NaOH 37° C., 15 minutes.
(§2) Equilibrium Binding Analysis of flg and bek Radioloabled with Acidic, Basic and k-fibroblast Growth Factors Acidic and basic FGF were radioiodinated and purified on heparin-Sepharose as described above. The dissociation constants of bek and flg for aFGF and bFGF were established by saturation binding analysis of the overexpressing cell lines with the iodinated ligands. Binding of both aFGF and bFGF to bek and flg was specific and saturable (FIG. 6A, inserts).

Test [2] concerns the target T1, human bek (bacterially expressed …). The test can be described thus: Scatchard analysis of [125I]aFGF saturation binding to bek overexpressing NIH 3T3 cells. The protocol: (§3) The background counts in the presence of a 100 fold molar excess of either ligand was always less than 10% of the total cpm at each point. The scale on the Scatchard analysis is the same in each panel.
as §1
(§4) Equilibrium Binding Analysis of flg and bek Radioloabled with Acidic, Basic and k-fibroblast Growth Factors Acidic and basic FGF were radioiodinated and purified on heparin-Sepharose as described above. The dissociation constants of bek and flg for aFGF and bFGF were established by saturation binding analysis of the overexpressing cell lines with the iodinated ligands. Binding of both aFGF and bFGF to bek and flg was specific and saturable (FIG. 6A, inserts). […] Scatchard, (*Ann. N.Y. Acad.

Test [3] has as its target T2, human flg (fms-like gene) fibroblast growth factor receptor (human, UniProt P11362 22-822).
T2 construct: whole, on cells; Three-Ig-domain form, 150 kDa glycoprotein on transfected NIH 3T3 cells; also called flg26; NFlg26
Briefly: Scatchard analysis of [125I]aFGF saturation binding to flg overexpressing NIH 3T3 cells. How it is done:
The scale on the Scatchard analysis is the same in each panel.
as §1, §2

Test [4] addresses T1, human bek (bacterially expressed …). The test can be described thus: saturation binding of [125I]aFGF to bek8 cells with excess unlabelled aFGF or bFGF. The protocol:
as §3, §1, §4

Test [5] addresses T2, human flg (fms-like gene) fibroblast …. Briefly: saturation binding of [125I]aFGF to flg26 cells with excess unlabelled aFGF or bFGF. How it is done: as §3, §1, §4
Test [6] has the same target. The test can be described thus: Scatchard analysis of [125I]kFGF saturation binding to flg26 cells.
The target is the same in test [7]. Briefly: Scatchard analysis of saturation binding to flg overexpressing cells, kFGF against bFGF. The protocol:
as §1, §2

Test [8] has as its target T1, human bek (bacterially expressed …). The test can be described thus: Scatchard analysis of [125I]kFGF saturation binding to bek13 cells.

T1 sequence (P21802 22-821): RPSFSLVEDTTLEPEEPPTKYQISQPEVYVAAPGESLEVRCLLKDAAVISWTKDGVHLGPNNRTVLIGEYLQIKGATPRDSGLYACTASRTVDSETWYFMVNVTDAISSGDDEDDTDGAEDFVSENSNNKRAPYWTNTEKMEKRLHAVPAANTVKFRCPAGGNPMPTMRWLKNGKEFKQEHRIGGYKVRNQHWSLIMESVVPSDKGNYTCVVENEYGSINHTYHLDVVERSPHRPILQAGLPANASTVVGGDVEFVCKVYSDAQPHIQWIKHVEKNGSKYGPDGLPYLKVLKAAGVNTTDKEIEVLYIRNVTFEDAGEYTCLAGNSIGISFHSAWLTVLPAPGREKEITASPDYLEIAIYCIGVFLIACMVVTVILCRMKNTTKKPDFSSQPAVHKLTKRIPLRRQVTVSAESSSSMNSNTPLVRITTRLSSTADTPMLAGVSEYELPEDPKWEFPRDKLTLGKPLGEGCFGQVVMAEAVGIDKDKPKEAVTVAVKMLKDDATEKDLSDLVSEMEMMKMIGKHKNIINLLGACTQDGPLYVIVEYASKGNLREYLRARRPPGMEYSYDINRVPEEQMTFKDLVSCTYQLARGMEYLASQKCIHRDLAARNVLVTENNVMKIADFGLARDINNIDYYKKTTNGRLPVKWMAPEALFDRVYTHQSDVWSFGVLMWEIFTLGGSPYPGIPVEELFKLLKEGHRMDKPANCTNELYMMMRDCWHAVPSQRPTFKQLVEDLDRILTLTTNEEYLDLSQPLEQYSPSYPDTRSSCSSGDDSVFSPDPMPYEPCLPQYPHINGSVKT
T2 sequence (P11362 22-822): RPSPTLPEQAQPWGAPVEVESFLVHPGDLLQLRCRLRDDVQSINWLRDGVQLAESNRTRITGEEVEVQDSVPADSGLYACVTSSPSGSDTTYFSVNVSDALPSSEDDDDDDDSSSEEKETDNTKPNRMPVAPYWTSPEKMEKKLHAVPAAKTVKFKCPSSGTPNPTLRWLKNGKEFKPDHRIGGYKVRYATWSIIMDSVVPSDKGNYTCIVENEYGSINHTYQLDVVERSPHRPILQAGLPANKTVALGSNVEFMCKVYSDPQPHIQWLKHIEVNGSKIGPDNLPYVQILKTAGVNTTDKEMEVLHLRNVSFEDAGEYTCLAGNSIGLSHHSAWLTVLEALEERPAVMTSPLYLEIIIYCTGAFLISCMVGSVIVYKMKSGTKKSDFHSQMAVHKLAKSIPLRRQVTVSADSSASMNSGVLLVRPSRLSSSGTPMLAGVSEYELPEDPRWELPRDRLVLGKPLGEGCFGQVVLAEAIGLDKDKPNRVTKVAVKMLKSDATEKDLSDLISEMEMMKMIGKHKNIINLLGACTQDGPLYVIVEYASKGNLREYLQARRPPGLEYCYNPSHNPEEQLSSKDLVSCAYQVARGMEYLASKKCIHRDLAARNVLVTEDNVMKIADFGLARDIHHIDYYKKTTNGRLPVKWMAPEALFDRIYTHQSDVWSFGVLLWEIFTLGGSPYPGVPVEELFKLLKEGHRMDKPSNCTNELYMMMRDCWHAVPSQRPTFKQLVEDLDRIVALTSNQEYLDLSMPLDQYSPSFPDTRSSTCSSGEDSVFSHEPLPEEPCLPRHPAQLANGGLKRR

B1: bovine derived acidic fibroblast growth factor (ligand, UniProt P03968 16-155, looked up)
chain: FNLPLGNYKKPKLLYCSNGGYFLRILPDGTVDGTKDRSDQHIQLQLCAESIGEVYIKSTETGQFLAMDTDGLLYGSQTPNEECLFLERLEENHYNTYISKKHAEKHWFVGLKKNGRSKLGPRTHFGQKAILFLPLPVSSD
modifications: radioiodinated (125I) by Enzymobeads where used as labelled ligand
notes: Purified from a bovine source; also called aFGF; acidic FGF
A word on the Kd: it is the constant that tells how readily two partners part at equilibrium. For B1, the results for the Kd in test [1], in test [2] and in test [3] were 40 to 100 pM, 47 pM and 24 pM, respectively. For the same molecule, the “background counts with 100 fold molar excess of either ligand, % of total cpm” value in test [4] and in test [5] was below 10% in each case.

B2: human recombinant kFGF (ligand, UniProt P08620 31-206, looked up)
chain: APTAPNGTLEAELERRWESLVALSLARLPVAAQPKEAAVQSGAGDYLLGIKRLRRLYCNVGIGFHLQALPDGRIGGAHADTRDSLLELSPVERGVVSIFGVASRFFVAMSSKGKLYGSPFFTDECTFKEILLPNNYNAYESYKYPGMFIALSKNGKTKKGNRVSPTMKVTHFLPRL
modifications: radioiodinated (125I) by Enzymobeads
notes: also called hst/kFGF
Consider B2, for which the Kd in test [6] is 320 pM; in test [8], 80 pM. Besides, the “fold less avidity than bFGF” value in test [7] was found to be 4 fold.
